Entries after “also recorded” stand apart in the source; their conditions may differ.
Tests used:
[1] = tested on: SphK1; assay: SphK1 transcripts qRT-PCR in hPASMC; format: cell-based, human; conditions: SMCs
Experimental: RAW 264.7 (ATCC) mouse macrophages and Human Embryonic Kidney (HEK) 293T cells were cultured in DMEM media with 10% fetal bovine serum […] and glutamine HEPES buffer and beta-mercaptoethanol were added to the growth medium used for RAW 264.7 macrophages. […]
Total RNA was extracted with TriZol using standard RNA extraction protocol and reverse transcribed with SuperScript III Reverse Transcriptase (Thermo Fischer Scientific). SphK1, Tnf, Il6, EGR1, Gapdh, Hprt1 transcripts were quantified using PrimePCR SYBR Green assays from BioRad. […]
Total RNA was extracted with TriZol using standard RNA extraction protocol and reverse transcribed with SuperScript III Reverse Transcriptase (Thermo Fisher Scientific). SPHK1, Tnf, Il6, EGR1, Gapdh, Hprt1 transcripts were quantified using PrimePCR SYBR Green assays from BioRad.

[2] = tested on: pERK1/2; assay: pERK1/2 western blot time course in RAW 264.7 macrophages; format: cell-based, mouse
Experimental: (§1) RAW 264.7 (ATCC) mouse macrophages and Human Embryonic Kidney (HEK) 293T cells were cultured in DMEM media with 10% fetal bovine serum […] and glutamine HEPES buffer and beta-mercaptoethanol were added to the growth medium used for RAW 264.7 macrophages. Primary human pulmonary artery smooth muscle cells (hPASMC) purchased from Lonza (Walkersville, Md.) were cultured in complete growth medium containing smooth muscle growth media-2 (SmGM-2) with 10% FBS and growth factors provided as a kit by the supplier (Lonza, (Walkersville, Md.). THP-1 human monocyte cells were cultured in RPMI 1640 with 10% FBS and glutamine Cells were cultured in a humidified atmosphere with 5% CO2 at 370 C. For all studies passages 5-14 were used for RAW 264.7 and passages 5-10 were used for hPASMCs. For treatment studies, subconfluent cells plated in multi-well plates were serum starved and if required, pretreated for with inhibitors before stimulating with 2 μg/mL recombinant EMAP II.
(§2) After appropriate treatments, protein lysates were prepared by using RIPA buffer supplemented with phosphatase and protease inhibitors (Thermo Fischer Scientific). Alpha-tubulin was used as a loading control. For nuclear and cytoplasmic fractionation, NE-PER kit from Thermo Fischer Scientific was used. Western blots were performed according to standard methods and quantified using densitometry using Image Studio Lite software from LI-COR Biosciences.
(§3) RAW 264.7 (ATCC) mouse macrophages and HEK-293T (ATCC) cells were cultured in DMEM media with 10% (v/v) fetal bovine serum (FBS) and 2 mM glutamine HEPES buffer and beta-mercaptoethanol were added to the growth medium used for RAW 264.7 macrophages. […]
(§4) After appropriate treatments, protein lysates were prepared by using RIPA buffer supplemented with phosphatase and protease inhibitors (Thermo Fisher Scientific). […] Western blots were performed according to standard methods and quantified using densitometry using Image Studio Lite software from LI-COR Biosciences.

[3] = tested on: pERK1/2; assay: pERK1/2 western blot time course in hPASMC; format: cell-based, human; conditions: SMCs
Experimental: as §1, §2, §3, §4

[4] = tested on: pSTAT3; assay: pSTAT3 levels in SMCs (data not shown); format: cell-based, human
[5] = tested on: S1P; assay: ELISA for S1P quantification in hPASMC; format: cell-based, human; conditions: SMCs; peaks at 1 hour and 6 hour; normalized against protein
Experimental: Equal number of hPASMC cells (1,000,000) were plated and serum starved for overnight. Cells were stimulated for in a series of time points and collected the cells. Cells were pelleted out and washed with PBS. After the lysis protein concentration was measured. S1P levels were measured using S1P ELISA kit (MyBioSource, MBS069092) following manufacturer's instructions. S1P levels were normalized against protein levels.

[6] = tested on: S1P; assay: Lung tissue S1P by HPLC/MS/MS in neonatal mice; format: in vivo, mouse; conditions: neonatal C57BL/6 mice; recombinant EMAP II subQ days of life 3-15; postnatal day 15 lungs
Experimental: Animal experimental procedure was performed in accordance with the guidelines issued by the University of Notre Dame/Indiana University Institutional Animal and Use Committee. Lung tissues were harvested from postnatal day 15 C57BL/6 mice (Jackson laboratories) that were injected with either EMAP II or PBS at Day 3. Total protein was extracted and quantified. 1 mg of total protein was subjected to S1P quantification by HPLC/MS/MS.
Collected cells were rinsed with PBS, pelleted. Cell pellets and 1 mg of protein tissue extracts were frozen at −80° C. Sphingolipids extraction and analysis was carried out at the Medical University of South Carolina (MUSC) core facility using eight-point calibration curves generated for each target analyte by High Performance Liquid Chromatography-Tandem Mass Spectrometry (HPLC/MS/MS) system operating in positive multiple reaction-monitoring (MRM) mode engaging a gradient elution. Sphingolipids were normalized to inorganic phosphate levels in PASMC which was determined from the Bligh & Dyer lipid extraction method. Biological samples were from different passages collected on different days.

B1: EMAP II: 6x-His tagged recombinant EMAP II, cleaved C-terminal peptide of AIMP1 (SEQ ID NO: 2), pro-inflammatory cytokine (protein)
chain: IAGSADSKPIDVSRLDLRIGCIITARKHPDADSLYVEEVDVGEIAPRTVVSGLVNHVPLEQMQNRMVILLCNLKPAKMRGVLSQAMVMCASSPEKIEILAPPNGSVPGDRITFDAFPGEPDKELNPKKKIWEQIQPDLHTNDECVATYKGVPFEVKGKGVCRAQTMSNSGIK
time of peak SphK1 transcription after EMAP II stimulation [1]: 3 h
earliest time of pERK1/2 activation [2]: 5 minutes
time of pERK1/2 peak [2]: 1 hour
ERK1/2 phosphorylation (pERK1/2 normalized to ERK1/2) ([2]; 24-hour time course): induced ERK1/2 phosphorylation; also recorded: bi-modal activation; also recorded: bimodal activation
earliest time pERK1/2 reached significance [3]: 3 minutes
time of pERK1/2 peak [3]: 3 minutes
ERK1/2 phosphorylation (pERK1/2) ([3]; 24-hour time course): bi-modal ERK1/2 activation; also recorded: induced pERK1/2
pSTAT3 levels / STAT3 activation [4]: does not impact; also recorded: no STAT3 activation
intracellular S1P levels (ELISA) [5]: significant bimodal pattern
whole lung S1P levels compared to control [6]: significantly increased; also recorded: significant increase
